Results on 1 molecule are retold here after US20230312671A1 (ST JUDE CHILDREN S RESEARCH HOSPITAL, published 2023).

For the experiment, the target named is T1, Glucose-regulated-protein 78 (GRP78), cell surface (UniProt P11021 19-654, limits assumed).
T1 construct: whole, on cells; The target was endogenous GRP78 on human tumour cell lines; No recombinant GRP78 was used; also called BiP; HSPA5
The experiment can be described thus: flow cytometry on AML and solid tumor cell lines, Streptavidin PE detection. From the text: Anti-KDEL antibody for detection of cell surface GRP78 (Abcam, Clone-10C3; Cat. No. ab115638) and Streptavidin PE (BioLegend, San Diego, CA. Cat. No 405204 were used for flow cytometric analysis. A GRP78-binding peptide ([…] (SEQ ID NO: 1)) with an N-terminal Biotin tag (Biotin-Ahx-[…] (SEQ ID NO: 71)) was obtained from Genscript). The following antibodies purchased from BD Biosciences were used for flow cytometry: CD4, CD8, CCR7 FITC, CD45RA APC, CD19 APC, CD19 PE, CD8 APC-H7, CD4-KrO, TIM3 PE-Cy7, LAG3 PE, and PD1 BV605. Recombinant Human ErbB2/Her2 Fc Chimera Protein (R&D Systems, Cat. No 1129-ER) was used to detect HER2 CAR. Half a million Transduced and Non-Transduced T Cells were washed with 1×PBS and the cells were incubated with 3 μL of antibody and Fixable Live Dead aqua stain (Thermo Fisher Scientific, L34965) on ice and protected from light for 30 mins. Cells were washed with 1×PBS+2% FBS. FACS was carried out using FACS Canto II or Lyric (BD Biosciences). The analysis was performed using FlowJo 10.5.3 software (BD Biosciences, San Jose, CA).
On the technique in general: A flow cytometer gives signals particle by particle.

Where no end group is shown, it is not given here. The star is where a group is joined. Biotin = O=C1N[C@H]2[C@H](CS[C@H]2CCCCC(=O)*)N1; Ahx = NCCCCCC(=O)O

T1 sequence (P11021 19-654 limits assumed): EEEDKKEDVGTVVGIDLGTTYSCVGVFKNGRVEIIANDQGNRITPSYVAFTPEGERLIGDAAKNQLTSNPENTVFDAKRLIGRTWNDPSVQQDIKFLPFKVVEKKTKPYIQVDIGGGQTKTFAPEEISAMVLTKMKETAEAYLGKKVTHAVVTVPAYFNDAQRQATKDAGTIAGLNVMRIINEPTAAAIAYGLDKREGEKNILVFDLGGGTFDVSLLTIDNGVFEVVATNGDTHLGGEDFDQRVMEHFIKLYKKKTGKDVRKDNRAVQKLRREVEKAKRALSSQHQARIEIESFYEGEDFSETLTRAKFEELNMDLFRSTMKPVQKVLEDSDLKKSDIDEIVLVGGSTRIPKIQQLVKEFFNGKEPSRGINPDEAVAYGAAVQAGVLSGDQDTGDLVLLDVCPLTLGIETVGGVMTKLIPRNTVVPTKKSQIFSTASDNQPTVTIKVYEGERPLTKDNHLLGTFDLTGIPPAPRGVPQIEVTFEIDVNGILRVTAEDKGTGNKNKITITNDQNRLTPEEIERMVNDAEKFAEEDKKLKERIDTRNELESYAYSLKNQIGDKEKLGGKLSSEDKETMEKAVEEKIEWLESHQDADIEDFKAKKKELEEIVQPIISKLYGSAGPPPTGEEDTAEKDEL

B1: biotin-conjugated GRP78-binding peptide (Biotin-Ahx-CTVALPGGYVRVC) (peptide)
peptide: {Biotin-Ahx}-CTVALPGGYVRVC
modifications: cysteine pairing not given here
notes: Synthetic 13-mer from Genscript, detected with Streptavidin PE in flow cytometry; also called biotin-conjugated peptide
Consider B1, for which the binding result was “binds”.
